According to publication PMC11342145:
Values belong to the substance of their own block, whether it stands above or below them.

Experiments:
[1] = target: Grb7 (UniProt Q03160); test: fragment AP-MS, label-free quantification; settings: reference: YYYS fragment
[2] = target: Pik3r1 (UniProt P26450); test: fragment AP-MS, label-free quantification
[3] = target: Grb2 (UniProt Q60631); test: fragment AP-MS, label-free quantification; settings: reference: YYYS fragment; sites Y239,Y240
[4] = target: Arhgef5 (UniProt E9Q7D5); test: fragment AP-MS, label-free quantification; settings: reference: YYYS fragment; sites Y239,Y240
[5] = target: Pik3r1 (UniProt P26450); test: fragment affinity purification, western blot
[6] = target: Grb2 (UniProt Q60631); test: fragment affinity purification, western blot; settings: reference: YYYS fragment; sites Y239,Y240
[7] = target: Plcg1 (UniProt Q62077); test: fragment AP-MS, label-free quantification
[8] = target: Ubash3b (Sts1) (UniProt Q8BGG7); test: fragment AP-MS, label-free quantification
[9] = target: Plcg1 (UniProt Q62077); test: fragment affinity purification, western blot; settings: reference: pYpYYS fragment; sites Y313,S335
[10] = target: Ubash3b (Sts1) (UniProt Q8BGG7); test: fragment affinity purification, western blot; settings: reference: pYpYYS fragment; sites Y313,S335
[11] = reference: YYYS fragment, sites Y239,Y240
[12] = reference: YYYS fragment, sites Y239,Y240,Y313,S335
[13] = reference: pYpYYS fragment, sites Y313,S335

Sequence of UniProt Q8BGG7 (Q8BGG7 whole entry, looked up, the tested form may be a part): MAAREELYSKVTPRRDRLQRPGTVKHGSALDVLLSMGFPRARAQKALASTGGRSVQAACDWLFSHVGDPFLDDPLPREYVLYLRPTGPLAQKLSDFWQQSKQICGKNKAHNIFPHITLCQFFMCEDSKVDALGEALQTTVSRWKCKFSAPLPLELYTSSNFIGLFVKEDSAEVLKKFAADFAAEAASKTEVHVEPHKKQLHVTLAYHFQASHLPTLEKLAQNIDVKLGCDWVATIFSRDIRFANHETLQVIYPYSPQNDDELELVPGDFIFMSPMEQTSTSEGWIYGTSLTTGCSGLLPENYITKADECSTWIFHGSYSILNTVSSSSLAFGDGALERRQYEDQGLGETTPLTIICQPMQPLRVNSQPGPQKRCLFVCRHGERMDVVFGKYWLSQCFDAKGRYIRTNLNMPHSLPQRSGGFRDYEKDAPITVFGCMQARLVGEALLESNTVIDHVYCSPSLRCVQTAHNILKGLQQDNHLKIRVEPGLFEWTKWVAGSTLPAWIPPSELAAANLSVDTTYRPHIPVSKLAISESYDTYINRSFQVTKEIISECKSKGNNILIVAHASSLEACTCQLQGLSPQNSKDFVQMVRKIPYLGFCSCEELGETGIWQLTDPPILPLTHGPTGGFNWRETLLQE
Sequence of UniProt Q62077 (Q62077 whole entry, looked up, the tested form may be a part): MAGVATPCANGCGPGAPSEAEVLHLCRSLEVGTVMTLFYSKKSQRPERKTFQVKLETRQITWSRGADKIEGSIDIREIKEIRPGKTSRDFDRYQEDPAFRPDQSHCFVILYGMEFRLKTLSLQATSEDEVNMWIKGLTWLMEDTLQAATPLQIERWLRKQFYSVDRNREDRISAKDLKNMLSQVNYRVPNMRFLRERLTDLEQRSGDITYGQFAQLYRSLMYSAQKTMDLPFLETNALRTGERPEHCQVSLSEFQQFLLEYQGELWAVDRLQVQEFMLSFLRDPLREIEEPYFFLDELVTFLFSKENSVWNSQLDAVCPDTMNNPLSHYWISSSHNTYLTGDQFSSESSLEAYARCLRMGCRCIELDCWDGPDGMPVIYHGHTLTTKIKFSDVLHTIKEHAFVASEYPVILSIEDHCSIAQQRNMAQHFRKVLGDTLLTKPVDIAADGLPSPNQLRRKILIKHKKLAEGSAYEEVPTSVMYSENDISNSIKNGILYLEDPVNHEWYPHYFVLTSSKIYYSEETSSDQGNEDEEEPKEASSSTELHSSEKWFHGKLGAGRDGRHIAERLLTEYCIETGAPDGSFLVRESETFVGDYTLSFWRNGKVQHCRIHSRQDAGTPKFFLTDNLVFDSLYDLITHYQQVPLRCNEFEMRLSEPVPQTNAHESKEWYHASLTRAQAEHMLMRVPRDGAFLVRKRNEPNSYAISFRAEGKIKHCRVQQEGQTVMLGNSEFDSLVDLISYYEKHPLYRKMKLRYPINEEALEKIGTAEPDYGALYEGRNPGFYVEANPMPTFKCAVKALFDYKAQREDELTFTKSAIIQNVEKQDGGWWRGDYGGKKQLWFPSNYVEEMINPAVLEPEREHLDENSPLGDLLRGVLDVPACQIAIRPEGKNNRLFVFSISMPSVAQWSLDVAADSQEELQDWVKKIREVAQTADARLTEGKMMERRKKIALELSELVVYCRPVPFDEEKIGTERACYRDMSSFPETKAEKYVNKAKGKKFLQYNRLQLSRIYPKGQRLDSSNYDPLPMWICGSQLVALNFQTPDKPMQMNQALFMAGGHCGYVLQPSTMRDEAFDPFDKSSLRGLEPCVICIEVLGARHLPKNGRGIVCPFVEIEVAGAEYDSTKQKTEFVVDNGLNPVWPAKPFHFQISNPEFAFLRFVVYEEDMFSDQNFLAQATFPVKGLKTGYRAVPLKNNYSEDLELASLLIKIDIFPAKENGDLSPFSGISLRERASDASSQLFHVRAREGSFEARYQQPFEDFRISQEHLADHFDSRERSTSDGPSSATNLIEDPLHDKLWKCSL
Sequence of UniProt P26450 (P26450 whole entry, looked up, the tested form may be a part): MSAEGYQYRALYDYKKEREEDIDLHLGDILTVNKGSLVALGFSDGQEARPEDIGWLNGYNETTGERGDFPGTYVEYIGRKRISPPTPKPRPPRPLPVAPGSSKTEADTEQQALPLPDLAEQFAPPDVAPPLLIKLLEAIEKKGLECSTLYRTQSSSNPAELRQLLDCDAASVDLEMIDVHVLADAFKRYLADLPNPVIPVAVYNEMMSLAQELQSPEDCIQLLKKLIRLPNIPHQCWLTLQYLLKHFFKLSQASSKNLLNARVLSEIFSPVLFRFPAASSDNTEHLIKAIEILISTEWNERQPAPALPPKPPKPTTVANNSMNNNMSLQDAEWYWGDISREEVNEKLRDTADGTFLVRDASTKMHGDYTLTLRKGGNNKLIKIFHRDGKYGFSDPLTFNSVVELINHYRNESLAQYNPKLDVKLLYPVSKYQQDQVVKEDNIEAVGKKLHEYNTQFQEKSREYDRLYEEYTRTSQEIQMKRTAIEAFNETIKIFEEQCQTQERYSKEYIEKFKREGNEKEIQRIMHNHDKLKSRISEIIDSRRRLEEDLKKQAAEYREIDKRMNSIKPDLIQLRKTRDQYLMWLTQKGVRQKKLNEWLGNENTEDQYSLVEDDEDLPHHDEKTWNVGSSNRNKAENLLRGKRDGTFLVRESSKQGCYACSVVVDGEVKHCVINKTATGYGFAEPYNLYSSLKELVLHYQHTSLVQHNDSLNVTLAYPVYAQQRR
Sequence of UniProt Q03160 (Q03160 whole entry, looked up, the tested form may be a part): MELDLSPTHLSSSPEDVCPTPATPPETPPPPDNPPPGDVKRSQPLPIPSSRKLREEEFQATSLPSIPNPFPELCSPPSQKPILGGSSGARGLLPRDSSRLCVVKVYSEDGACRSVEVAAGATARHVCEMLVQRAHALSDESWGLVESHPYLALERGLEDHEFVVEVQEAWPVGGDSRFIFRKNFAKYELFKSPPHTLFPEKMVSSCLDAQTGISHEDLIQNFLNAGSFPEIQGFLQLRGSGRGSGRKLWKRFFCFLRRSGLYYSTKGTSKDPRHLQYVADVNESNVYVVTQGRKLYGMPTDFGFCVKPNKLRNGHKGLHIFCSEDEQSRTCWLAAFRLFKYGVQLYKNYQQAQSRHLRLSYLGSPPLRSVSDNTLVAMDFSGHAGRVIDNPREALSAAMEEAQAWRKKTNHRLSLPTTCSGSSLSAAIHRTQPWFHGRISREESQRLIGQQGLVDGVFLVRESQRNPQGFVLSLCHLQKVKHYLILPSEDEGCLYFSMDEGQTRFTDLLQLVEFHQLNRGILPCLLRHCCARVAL
Sequence of UniProt E9Q7D5 (E9Q7D5 whole entry, looked up, the tested form may be a part): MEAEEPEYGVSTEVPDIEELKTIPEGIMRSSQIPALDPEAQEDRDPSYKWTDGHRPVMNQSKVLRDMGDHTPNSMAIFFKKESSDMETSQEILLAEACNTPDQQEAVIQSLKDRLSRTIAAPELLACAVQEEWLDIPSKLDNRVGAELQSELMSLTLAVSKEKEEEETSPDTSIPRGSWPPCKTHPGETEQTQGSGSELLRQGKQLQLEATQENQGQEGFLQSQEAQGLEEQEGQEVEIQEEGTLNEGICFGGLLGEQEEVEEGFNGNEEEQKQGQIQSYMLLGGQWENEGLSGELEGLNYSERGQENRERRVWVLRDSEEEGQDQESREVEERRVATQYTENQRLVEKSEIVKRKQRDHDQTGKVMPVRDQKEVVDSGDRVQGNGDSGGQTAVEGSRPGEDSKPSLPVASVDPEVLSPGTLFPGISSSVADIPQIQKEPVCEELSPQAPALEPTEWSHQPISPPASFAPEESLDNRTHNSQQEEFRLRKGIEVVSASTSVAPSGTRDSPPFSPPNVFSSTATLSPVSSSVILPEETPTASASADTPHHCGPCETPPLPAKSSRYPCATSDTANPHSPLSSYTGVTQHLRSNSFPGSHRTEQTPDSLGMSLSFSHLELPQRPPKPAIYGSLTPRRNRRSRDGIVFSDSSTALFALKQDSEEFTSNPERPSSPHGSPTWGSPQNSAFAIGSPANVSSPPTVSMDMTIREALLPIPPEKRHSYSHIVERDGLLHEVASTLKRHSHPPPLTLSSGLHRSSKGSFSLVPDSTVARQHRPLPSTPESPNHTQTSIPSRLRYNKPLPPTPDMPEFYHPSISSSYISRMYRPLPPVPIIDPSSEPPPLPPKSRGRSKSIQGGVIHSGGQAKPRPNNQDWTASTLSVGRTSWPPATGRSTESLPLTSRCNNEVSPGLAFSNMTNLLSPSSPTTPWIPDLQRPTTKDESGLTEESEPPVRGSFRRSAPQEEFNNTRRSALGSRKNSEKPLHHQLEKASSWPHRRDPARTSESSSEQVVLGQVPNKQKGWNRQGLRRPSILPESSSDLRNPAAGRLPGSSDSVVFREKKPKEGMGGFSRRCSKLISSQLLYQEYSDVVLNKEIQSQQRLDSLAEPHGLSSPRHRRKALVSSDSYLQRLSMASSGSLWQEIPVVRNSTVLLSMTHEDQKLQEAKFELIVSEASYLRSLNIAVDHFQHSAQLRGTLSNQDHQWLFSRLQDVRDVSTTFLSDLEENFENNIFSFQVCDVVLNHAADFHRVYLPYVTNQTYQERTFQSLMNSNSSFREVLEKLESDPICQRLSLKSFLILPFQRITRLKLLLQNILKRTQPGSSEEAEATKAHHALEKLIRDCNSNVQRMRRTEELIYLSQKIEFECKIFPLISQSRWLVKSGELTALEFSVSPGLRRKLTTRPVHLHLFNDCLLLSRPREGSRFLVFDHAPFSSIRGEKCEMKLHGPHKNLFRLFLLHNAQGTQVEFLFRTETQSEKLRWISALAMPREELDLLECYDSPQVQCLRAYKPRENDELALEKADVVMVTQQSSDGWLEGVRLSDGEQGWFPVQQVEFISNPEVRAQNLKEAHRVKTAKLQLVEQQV

binding against the reference ([1]; sites Y239): stronger
Substance: Shc1 (p52Shc1) CH1 region, 107 residues (from UniProt P98083-2) pYYYS fragment

binding against the reference ([1]; sites Y239,Y240): stronger | binding against the reference [2, 11]: stronger | binding against the reference [3]: stronger | binding against the reference [4]: stronger | binding against the reference [5, 11]: stronger | binding against the reference [6]: stronger
Substance: Shc1 (p52Shc1) CH1 region, 107 residues (from UniProt P98083-2) pYpYYS fragment

binding against the reference [7, 12]: stronger | binding against the reference [7, 13]: stronger | binding against the reference [2, 13]: stronger | binding against the reference [8, 12]: stronger | binding against the reference [8, 13]: stronger | binding against the reference [9]: stronger | binding against the reference [5, 13]: stronger | binding against the reference [10]: stronger
Substance: Shc1 (p52Shc1) CH1 region, 107 residues (from UniProt P98083-2) pYpYpYpS fragment
